Where two headings read alike, the source gives them in different places. Bridge positions count the residues as written; N and C are the ends. Square brackets hold non-standard residues; d marks the D form. Primed or numbered codes have the meaning given here. Ends that are not written are not given here. * marks the point of attachment. Biotin = O=C1N[C@H]2[C@H](CS[C@H]2CCCCC(=O)*)N1; PEG6′ = PEG linker with 6 ethylene glycol units; PEG8′ = PEG linker with 8 ethylene glycol units; Trp(1-Me) = Cn1cc(C[C@H](N)C(=O)O)c2ccccc21; Phe(4-F) = N[C@@H](Cc1ccc(F)cc1)C(=O)O; Me‑Phe = methyl phenylalanine; PEG3′ = not defined here; Ph‑Tyr = phenyl tyrosine; Pra = C#CC[C@H](N)C(=O)O; Az4 = not defined here; Inh = not defined here; Me‑Val = methyl valine
What was measured:
[1] = biological target: T1, His-tagged IDO1 human recombinant protein (71182, BPS Biosciences) (human, UniProt P14902 2-403); experiment: ELISA: biotinylated peptide on NeutrAvidin plate, 6xHis-tagged human IDO1 titrated
T1 construct: Bought His-tagged protein; also called human IDO1; recombinant human IDO1
Experimental: The plate was aspirated and then washed with Wash Buffer (0.05% (v/v) Tween-20 in PBS, 6×). His-tagged IDO1 human recombinant protein (71182, BPS Biosciences) was serially diluted in Wash Buffer (from 200 to 0 nM) and incubated in the designated microwells for 1 h at room temperature. […] (ab49746, Abcam) was prepared at 1:10,000 dilution and added to the microwells for 1 h at room temperature. The plate was aspirated and washed with Wash Buffer (5×). AttoPhos® AP Fluorescent Substrate System (S1000, Promega) was employed to develop the microwells. Using an excitation wavelength of 430 nm, fluorescent emission at 535 nm was recorded by Beckman Coulter DTX880 photometer.

[2] = biological target: T1, His-tagged IDO1 human recombinant …; experiment: cell-based or functional assay
[3] = biological target: T1, His-tagged IDO1 human recombinant …; experiment: binding affinity, assay not named
[4] = biological target: T1, His-tagged IDO1 human recombinant …; experiment: cell-based or functional assay; remark: listed apart in the source
[5] = biological target: IDO1 in HeLa cells stimulated with IFNγ (UniProt P14902 1-403, limits assumed); experiment: cell-based or functional assay
[6] = biological target: T1, His-tagged IDO1 human recombinant …; experiment: cell-based or functional assay; remark: listed apart in the source
[7] = biological target: T1, His-tagged IDO1 human recombinant …; experiment: ELISA: biotin-PEG3 macrocycle on NeutrAvidin plate, His-tagged human IDO1 titrated, AP-conjugated anti-6XHis antibody, fluorescence

T1 sequence (P14902 2-403 limits assumed): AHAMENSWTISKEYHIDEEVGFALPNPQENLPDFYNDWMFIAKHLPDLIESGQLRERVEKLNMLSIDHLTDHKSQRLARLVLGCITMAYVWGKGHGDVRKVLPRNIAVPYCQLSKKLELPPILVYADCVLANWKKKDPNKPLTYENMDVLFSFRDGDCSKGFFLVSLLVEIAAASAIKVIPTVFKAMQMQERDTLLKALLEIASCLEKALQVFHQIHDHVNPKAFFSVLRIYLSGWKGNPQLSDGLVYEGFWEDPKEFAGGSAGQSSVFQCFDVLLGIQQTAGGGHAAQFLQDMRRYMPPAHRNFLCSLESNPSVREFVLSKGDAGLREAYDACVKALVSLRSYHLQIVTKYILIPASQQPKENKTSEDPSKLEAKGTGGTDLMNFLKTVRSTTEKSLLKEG
Chain of IDO1 in HeLa cells stimulated with IFNγ (P14902 whole entry): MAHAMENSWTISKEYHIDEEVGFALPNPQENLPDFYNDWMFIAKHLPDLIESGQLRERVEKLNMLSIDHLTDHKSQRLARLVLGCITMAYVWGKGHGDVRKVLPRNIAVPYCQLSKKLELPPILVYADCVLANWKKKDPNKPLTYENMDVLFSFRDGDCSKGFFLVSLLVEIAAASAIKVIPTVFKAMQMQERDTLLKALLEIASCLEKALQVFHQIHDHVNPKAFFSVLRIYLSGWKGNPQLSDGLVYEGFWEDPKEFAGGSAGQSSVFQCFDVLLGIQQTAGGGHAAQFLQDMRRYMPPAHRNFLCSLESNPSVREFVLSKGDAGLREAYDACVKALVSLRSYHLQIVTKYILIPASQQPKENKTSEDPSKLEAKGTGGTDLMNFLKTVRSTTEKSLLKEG

B1: (F-Phe)n(Me-Trp)(Me-Trp)w macrocycle (peptide)
peptide: [Pra][Phe(4-F)][dN][Trp(1-Me)][Trp(1-Me)][dW]-Az4
modifications: triazole N-C; reading uncertain; also: biotinylated for ELISA, site not given here, printed as (F-Phe)n(Me-Trp)(Me-Trp)w
[1]
  EC50: 100 nM

B2: Inh-PEG8-wyry (other)
peptide: {Inh-PEG8′}-[Pra][dW][dY][dR][dY]-Az4
modifications: triazole N-C; numbers in words are those of the source; reading uncertain; also: Inh joined through PEG8 linker, printed as Inh-PEG8-wyry
[2]
  IC50, IDO1 inhibition assay: 3740 nM

## [dW][Ph‑Tyr][Me‑Val]G[Me‑Phe] (not fully specified; printed as w(Ph-Tyr)(Me-Val)G(Me-Phe), Modified version of wyvay) [w(Ph-Tyr)(Me-Val)G(Me-Phe)]
[3]
  EC50: 18 nM

B3: Deprotected-Inh-Gly2-wyvay (other)
peptide: Inh-GG[dW][dY][dV][dA][dY]
modifications: triazole (positions not given here); not fully specified (residue 2, C-terminus); printed as Deprotected-Inh-Gly2-wyvay; reading uncertain; also: IDO1 inhibitor Inh on the Gly2 linker, ring closed by triazole between flanking Pra and Az4
[4]
  IC50, IDO1 inhibition assay: 1010 nM

B4: Inh-PEG4-wyry (other)
peptide: [Pra][dW][dY][dR][dY]-Az4
modifications: triazole N-C; numbers in words are those of the source; reading uncertain; also: small molecule Inh joined via PEG4 linker, attachment point not given here
[2]
  IC50, IDO1 inhibition assay: 871 nM

B5: Inh-PEG6-wyry (other)
peptide: {Inh-PEG6′}-[Pra][dW][dY][dR][dY]-Az4
modifications: triazole N-C; numbers in words are those of the source; reading uncertain; also: Inh joined through PEG6 linker, printed as Inh-PEG6-wyry
[2]
  IC50, IDO1 inhibition assay: 338 nM
[5]
  % inhibition at 8 µM, HeLa: 47.8%
[6]
  Inhibition Recombinant IDO1 IC50: 338 nM

## {Biotin-PEG3′}-[dW]-[dW]-[Phe(4-F)] (triazole (positions not given here); also: triazole-cyclised) [ww(F-Phe)]
[7]
  EC50: 96 nM

From patent US20200371101A1 (Regeneron, published 2020)
